Experimental data as given in patent US20180030151A1 (MOGAM INSTITUTE FOR BIOMEDICAL RESEARCH, published 2018).
Where two headings read alike, the source gives them in different places.

What was measured:
[1] = biological target: T1, recombinant human TFPI (tissue factor pathway inhibitor) (human, UniProt P10646 29-304); assay: cell-based or functional assay
[2] = biological target: T1, recombinant human TFPI (tissue factor …); assay: cell-based or functional assay; remark: listed apart in the source
[3] = biological target: T1, recombinant human TFPI (tissue factor …); assay: cell-based or functional assay; remark: listed apart in the source
[4] = biological target: T1, recombinant human TFPI (tissue factor …); assay: cell-based or functional assay; remark: listed apart in the source
[5] = biological target: T1, recombinant human TFPI (tissue factor …); assay: SPR, Biacore T-200; TFPI immobilised on CM5 chip, IgG as analyte
Protocol: 10 mM of glycine-HCl (pH 1.5) was run at a flow rate of 30 μL/min for 30 seconds, thereby inducing the dissociation of the antibody associated with the TFPI. The affinity in terms of kinetic rate constants (Kₒₙ and Koff) and equilibrium dissociation constant

[6] = biological target: T1, recombinant human TFPI (tissue factor …); assay: cell-based or functional assay; remark: listed apart in the source
[7] = biological target: T1, recombinant human TFPI (tissue factor …); assay: cell-based or functional assay; remark: listed apart in the source

B1: clone T417 (antibody, V domains shown)
VH: EVHLVESGGDLVKPGGSLKLSCAASGFTFSSYAMSWVRQTPDKRLEWVATITTGGSYTYYPDSVKGRFTISRDNAKNTLYLQMSSLKSEDTAMYYCARQDGNFLMDYWGQGTTVTVSS
VL: not shown
notes: also called T417 chimeric antibody
% of Normalized, TF/FVIIa/FX complex assay, Ab 1.56 nM [1]: 5.2% | % of Normalized, TF/FVIIa/FX complex assay, Ab 3.13 nM [1]: 5.5% | % of Normalized, TF/FVIIa/FX complex assay, Ab 6.25 nM [1]: 5.8% | % of Normalized, TF/FVIIa/FX complex assay, Ab 12.5 nM [1]: 8.7% | % of Normalized, TF/FVIIa/FX complex assay, Ab 25 nM [1]: 32.1% | % of Normalized, TF/FVIIa/FX complex assay, Ab 50 nM [1]: 70.7% | % of Normalized, TF/FVIIa/FX complex assay, Ab 100 nM [1]: 95.5% | % of Normalized, TF/FVIIa/FX complex assay, Ab 1.56 nM [2]: 15.2% | % of Normalized, TF/FVIIa/FX complex assay, Ab 3.13 nM [2]: 16.8% | % of Normalized, TF/FVIIa/FX complex assay, Ab 6.25 nM [2]: 19.5% | % of Normalized, TF/FVIIa/FX complex assay, Ab 12.5 nM [2]: 26.3% | % of Normalized, TF/FVIIa/FX complex assay, Ab 25 nM [2]: 92.2% | % of Normalized, TF/FVIIa/FX complex assay, Ab 50 nM [2]: 95.1% | % of Normalized, TF/FVIIa/FX complex assay, Ab 100 nM [2]: 99% | A405, TF/FVIIa/FX complex assay, Ab 1.56 nM [3]: 0.16 | A405, TF/FVIIa/FX complex assay, Ab 3.13 nM [3]: 0.158 | A405, TF/FVIIa/FX complex assay, Ab 6.25 nM [3]: 0.183 | A405, TF/FVIIa/FX complex assay, Ab 12.5 nM [3]: 0.253 | A405, TF/FVIIa/FX complex assay, Ab 25 nM [3]: 0.894 | A405, TF/FVIIa/FX complex assay, Ab 50 nM [3]: 0.938 | A405, TF/FVIIa/FX complex assay, Ab 100 nM [3]: 0.931 | FXa assay % of FXa alone, 2.5 nM Ab, 10 nM TFPI [4]: 9.2% | FXa assay % of FXa alone, 5 nM Ab, 10 nM TFPI [4]: 43.8% | FXa assay % of FXa alone, 10 nM Ab, 10 nM TFPI [4]: 75.2% | FXa assay % of FXa alone, 20 nM Ab, 10 nM TFPI [4]: 88.6% | FXa assay OD, 2.5 nM Ab, 10 nM TFPI [4]: 0.071 | FXa assay OD, 5 nM Ab, 10 nM TFPI [4]: 0.337 | FXa assay OD, 10 nM Ab, 10 nM TFPI [4]: 0.579 | FXa assay OD, 20 nM Ab, 10 nM TFPI [4]: 0.682 | Kd [5]: 6.7 pM | FXa assay % of FXa alone, 0.625 nM Ab, 10 nM TFPI [6]: 6% | FXa assay % of FXa alone, 2.5 nM Ab, 10 nM TFPI [6]: 10% | FXa assay OD, 0.625 nM Ab, 10 nM TFPI [6]: 0.061 OD | FXa assay OD, 2.5 nM Ab, 10 nM TFPI [6]: 0.098 OD | FXa assay OD, 10 nM Ab, 10 nM TFPI [6]: 0.753 OD | FXa assay OD, 40 nM Ab, 10 nM TFPI [6]: 0.887 OD | A405, TF/FVIIa/FX complex assay, Ab 1.56 nM [7]: 0.045 | A405, TF/FVIIa/FX complex assay, Ab 3.13 nM [7]: 0.047 | A405, TF/FVIIa/FX complex assay, Ab 6.25 nM [7]: 0.05 | A405, TF/FVIIa/FX complex assay, Ab 12.5 nM [7]: 0.074 | A405, TF/FVIIa/FX complex assay, Ab 25 nM [7]: 0.273 | A405, TF/FVIIa/FX complex assay, Ab 50 nM [7]: 0.6 | A405, TF/FVIIa/FX complex assay, Ab 100 nM [7]: 0.81
